According to paper PMC5353710, “Structural insights into the γ-lactamase activity and substrate enantioselectivity of an isochorismatase-like hydrolase from Microbacterium hydrocarbonoxydans” (Scientific Reports, 2017):

How the values were obtained:
purified protein [1] = substrate: O=C1N[C@@H]2C=C[C@H]1C2; experiment: purified protein; details: 50 mM Tris-HCl pH 7.5, 25 °C, substrate 5 to 200 mM
purified protein [2] = substrate: O=C1N[C@H]2C=C[C@@H]1C2; experiment: purified protein; details: 50 mM Tris-HCl pH 7.5, 25 °C, substrate 5 to 200 mM

B1: MhIHL (Mh33H4-5540) (Microbacterium hydrocarbonoxydans) (protein)
chain: MAAPRRTVVLAIDLQAGVTPGCFDEEGVLSRAAALVERARAGGVPVVWVHHDPVGVGTPEWELAAPLHRAEGEPLVRKNYRDSFADTTLRETLDELGATHLVITGAQSDFCVRTTMQRAAAEGYDVTLVSDAHTTVDTEWEGVRISGEQIVAHTNMYFSGLRYPGQEFVIATHDHVAL
Km (purified protein [1]): 12.9 mM | kcat (purified protein [1]): 203 s⁻¹ | kcat/Km (purified protein [1]): 15800 M⁻¹ s⁻¹ | Km (purified protein [2]): 34.2 mM | kcat (purified protein [2]): 19.8 s⁻¹ | kcat/Km (purified protein [2]): 580 M⁻¹ s⁻¹
